The results in this text go back to patent US20080108128A1, “Resonance Energy Transfer Assay System for Multi-Component Detection” (priority 2003, published 2008).

This assay deals with T1, CCR2 (Homo sapiens, UniProt P41597).
T1 construct: expressed in transfected cells; host or cells: Cos-7
As to the kind of experiment: multiplex BRET assay of ligand induced CCR2:beta-arrestin-2 interaction in live Cos-7 cells. In kind it is cell-based. Conditions: Cos-7 cells co-expressing Rluc-Barr2, TRHR and CCR2 fusions (EYFP / t-dimer2(12)); MCP1 0.1 μM, 37° C. 10 min; coelenterazine h 5 μM. The text has this: A construct for the expression of bovine beta-arrestin-2, N-terminally fused to Rluc (Rluc-Barr2) was constructed by amplification of the bovine beta-arrestin-2 coding sequence by PCR using the Barr2-fw and Barr2-re primers (template: construct containing bovine beta-arrestin2 in pcDNA3 (Invitrogen)). The 5′ and 3′ primers used contained EcoRV and NotI restriction enzyme sites, respectively. A second PCR product, containing the coding sequence for Rluc, was generated by amplifying the Rluc cDNA sequence with the primers Rluc-fw and Rluc-re using the plasmid pRL-CMV (Promega) as a template. This second PCR product contained HindIII and EcoRV restriction site at the 5′ and 3′ ends, respectively. Both PCR products were then cloned together into the HindIII/NotI sites of pcDNA3 (Invitrogen). […]
Ligands or combinations of ligands were added to the samples to a final concentration of 1 μM for TRH and 0.1 μM for MCP1, the natural ligands for the TRHR and CCR2 receptors, respectively. […] A Varian Eclipse fluorescence spectrometer (Varian) was used to record luminescence spectra in the range between 400-700 nm after coelenterazine h (Molecular Probes) was added to the samples to a final concentration of 5 μM.
The spectra were further analysed by integrating the peak areas of the EYFP and t-dimer2(12) emission peaks as described in Example 2. […]
For orientation: Bioluminescence resonance energy transfer reports proximity on the nanometre scale.

T1 sequence (P41597 1-360 isoform P41597-2): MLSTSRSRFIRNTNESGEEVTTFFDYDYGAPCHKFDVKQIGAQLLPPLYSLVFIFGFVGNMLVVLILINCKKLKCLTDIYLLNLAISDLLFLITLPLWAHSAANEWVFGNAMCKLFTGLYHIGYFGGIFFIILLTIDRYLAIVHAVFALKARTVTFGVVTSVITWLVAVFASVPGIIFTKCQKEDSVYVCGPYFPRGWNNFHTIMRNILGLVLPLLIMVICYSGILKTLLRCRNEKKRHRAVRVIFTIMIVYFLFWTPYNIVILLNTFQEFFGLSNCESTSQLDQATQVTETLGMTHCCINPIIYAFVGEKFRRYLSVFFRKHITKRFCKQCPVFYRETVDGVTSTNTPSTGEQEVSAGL
T1 sequence (P32120 whole entry partner): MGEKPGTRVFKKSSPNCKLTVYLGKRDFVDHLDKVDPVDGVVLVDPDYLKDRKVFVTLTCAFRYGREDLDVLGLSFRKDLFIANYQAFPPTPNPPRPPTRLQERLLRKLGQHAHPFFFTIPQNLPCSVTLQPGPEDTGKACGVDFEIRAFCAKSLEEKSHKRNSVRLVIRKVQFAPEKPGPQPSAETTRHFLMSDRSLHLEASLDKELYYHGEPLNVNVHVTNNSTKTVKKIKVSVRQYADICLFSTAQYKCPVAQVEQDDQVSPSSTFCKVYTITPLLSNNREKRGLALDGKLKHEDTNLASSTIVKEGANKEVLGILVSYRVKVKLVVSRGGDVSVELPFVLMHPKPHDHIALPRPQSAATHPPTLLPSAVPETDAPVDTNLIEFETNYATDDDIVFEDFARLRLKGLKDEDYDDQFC

Regarding “MCP1: natural ligand for the CCR2 receptor”, the “ligand induced RET signal of CCR2 with Rluc-beta-arrestin-2” value was “activated this receptor as was observed in an increase of the respective RET signal with beta-arrestin-2”.
